# Assay results from paper PMC6289849 (The Journal of steroid biochemistry and molecular biology, 2018).
# Read-outs that look alike come from different tables or passages of the source.
# Columns and labels:
# [1] = biological target: T1, human STS (Homo sapiens, UniProt P08842); assay: HPLC of released estrone; assay type: biochemical; settings: 5 μM E1-sulfate, 37°C, 15 min, pH 7.0, 10 mM Ca2+; irreversible inhibitor
# T1 sequence (P08842 22-583): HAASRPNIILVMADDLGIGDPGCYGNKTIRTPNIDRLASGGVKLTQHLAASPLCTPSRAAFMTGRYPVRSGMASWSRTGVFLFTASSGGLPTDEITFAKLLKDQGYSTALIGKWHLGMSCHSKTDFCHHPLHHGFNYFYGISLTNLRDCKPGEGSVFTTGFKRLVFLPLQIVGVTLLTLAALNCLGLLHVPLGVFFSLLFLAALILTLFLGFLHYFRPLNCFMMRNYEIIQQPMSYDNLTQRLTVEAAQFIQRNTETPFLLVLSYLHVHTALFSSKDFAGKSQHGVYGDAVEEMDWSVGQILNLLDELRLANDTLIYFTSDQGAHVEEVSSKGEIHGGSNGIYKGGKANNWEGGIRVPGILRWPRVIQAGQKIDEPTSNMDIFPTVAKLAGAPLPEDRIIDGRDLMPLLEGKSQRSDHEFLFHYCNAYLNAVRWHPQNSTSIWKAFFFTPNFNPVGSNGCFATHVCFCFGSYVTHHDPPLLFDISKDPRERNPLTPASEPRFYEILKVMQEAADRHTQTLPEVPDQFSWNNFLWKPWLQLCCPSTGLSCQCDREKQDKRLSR
# [2] = biological target: zebrafish Sts (zfSts, zfSts_tv1) (Danio rerio, UniProt A0ACD6B647, I88V/L437F/N388K); assay: HPLC of released estrone; assay type: biochemical; settings: read-out: % inhibition at 0.1 μM
# [3] = tested on: CC(=O)[C@H]1CC[C@H]2[C@@H]3CC=C4C[C@@H](OS(=O)(=O)O)CC[C@]4(C)[C@H]3CC[C@]12C; assay: cells, lysate or membranes; settings: 28°C, pH 7.0 Hepes, 10 mM Ca2+, 1 mM DTT, labelled compound
# [4] = tested on: CC(C)CCC[C@@H](C)[C@H]1CC[C@H]2[C@@H]3CC=C4C[C@@H](OS(=O)(=O)O)CC[C@]4(C)[C@H]3CC[C@]12C; assay: cells, lysate or membranes; settings: 28°C, pH 7.0 Hepes, 10 mM Ca2+, 1 mM DTT, labelled compound
# [5] = tested on: C[C@]12CC[C@@H]3c4ccc(OS(=O)(=O)O)cc4CC[C@H]3[C@@H]1CCC2=O; assay: cells, lysate or membranes; settings: 28°C, pH 7.0 Hepes, 10 mM Ca2+, 1 mM DTT, labelled compound
# [6] = tested on: [H][C@@]12CC=C3C[C@@H](OS(=O)(=O)O)CC[C@]3(C)[C@@]1([H])CC[C@]1(C)C(=O)CC[C@@]21[H]; assay: cells, lysate or membranes; settings: 28°C, pH 7.0 Hepes, 10 mM Ca2+, 1 mM DTT, labelled compound
# [7] = tested on: [H][C@@]12CCc3cc(OS(=O)(=O)O)ccc3[C@@]1([H])CC[C@]1(C)[C@@H](O)CC[C@@]21[H]; assay: cells, lysate or membranes; settings: 28°C, pH 7.0 Hepes, 10 mM Ca2+, 1 mM DTT, labelled compound
# [8] = biological target: zebrafish Sts (zfSts, zfSts_tv1) (Danio rerio, UniProt A0ACD6B647); assay: HPLC of released estrone; assay type: biochemical; settings: 5 μM E1-sulfate, 28°C, 15 min, pH 7.0, 10 mM Ca2+; irreversible inhibitor
# [9] = biological target: T1, human STS; settings: 5 μM E1-sulfate, 37°C, 15 min, pH 7.0, 10 mM Ca2+; irreversible inhibitor
# Chain of zebrafish Sts (zfSts, zfSts_tv1) (Danio rerio, UniProt A0ACD6B647) (A0ACD6B647 21-584): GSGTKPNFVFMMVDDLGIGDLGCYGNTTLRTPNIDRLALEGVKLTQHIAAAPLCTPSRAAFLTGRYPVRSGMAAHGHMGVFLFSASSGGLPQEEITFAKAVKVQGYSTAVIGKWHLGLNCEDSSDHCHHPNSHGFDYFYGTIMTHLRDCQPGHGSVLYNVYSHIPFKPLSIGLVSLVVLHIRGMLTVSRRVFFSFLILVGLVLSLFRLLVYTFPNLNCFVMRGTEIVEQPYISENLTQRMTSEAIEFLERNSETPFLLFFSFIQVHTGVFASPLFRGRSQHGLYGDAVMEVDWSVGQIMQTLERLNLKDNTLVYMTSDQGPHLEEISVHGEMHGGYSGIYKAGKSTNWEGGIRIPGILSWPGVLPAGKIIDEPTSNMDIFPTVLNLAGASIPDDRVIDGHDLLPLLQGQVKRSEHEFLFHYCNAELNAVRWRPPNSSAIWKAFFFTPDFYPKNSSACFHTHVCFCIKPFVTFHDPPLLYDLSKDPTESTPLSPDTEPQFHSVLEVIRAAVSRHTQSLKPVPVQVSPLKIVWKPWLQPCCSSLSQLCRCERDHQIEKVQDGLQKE
# Chain of zebrafish Sts (zfSts, zfSts_tv1) (Danio rerio, UniProt A0ACD6B647, I88V/L437F/N388K) (A0ACD6B647 21-584, stated change not applied): as the sequence (A0ACD6B647 21-584) above
compound,measurement,setting,value
NS(=O)(=O)Oc1ccc2c3c(c(=O)oc2c1)CCCCC3 [STX64],% inhibition at 0.1 μM,[1],93%
same,inhibition at 0.1 µM,[2],88.3%
"zebrafish Sts (zfSts, zfSts_tv1) (Danio rerio; I88V/L437F/N388K)",Km,[3],0.18 ± 0.01 µM
same,Vmax,[3],0.000104 µmol/min/mg
same,Km,[4],0.62 ± 0.06 µM
same,Vmax,[4],8.12e-05 µmol/min/mg
same,Km,[5],4.32 ± 0.49 µM
same,Vmax,[5],0.00126 µmol/min/mg
same,Km,[6],19.38 ± 3.07 µM
same,Vmax,[6],0.000374 µmol/min/mg
same,Km,[7],2.07 ± 0.29 µM
same,Vmax,[7],0.00107 µmol/min/mg
C[C@]12CC[C@@H]3c4ccc(OS(N)(=O)=O)cc4CC[C@H]3[C@@H]1CCC2=O [EMATE],% inhibition at 0.1 μM,[8],EMATE also inhibited the activity zebrafish Sts_tv1 and human STS
same,% inhibition at 0.1 μM,[9],EMATE also inhibited the activity zebrafish Sts_tv1 and human STS
